In one assay the target is T1, GST-Obsc_(6316–6345) (Rattus norvegicus).
T1 chain: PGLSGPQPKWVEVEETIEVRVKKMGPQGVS
The assay can be described thus: SPR.

A further assay deals with GST-Obsc_(6231–6260) (Rattus norvegicus). The assay can be described thus: SPR.

In general, Kd refers to the constant that tells how readily two partners part at equilibrium. A higher Kd goes with weaker binding.

Residue numbers refer to the chain shown, from its start. Numbers in names are those of the source.

B1: sAnk1-MBP I102A (domain or fragment)
chain: VKGSLCFVLKHIHQELDKELGESEGLSDDEETISTRVVRRRVFLKGDELQNIPGEQVTEEQFTDEQGNIVTKKAIRKVVRQVDSSGAIDTQQHEEVELRGSGLQPDLIEGRKGAQIVKRASLKRGKQ
Turning to B1, in the assay with GST-Obsc_(6316–6345), the “fold reduction in kon against wild type” value is around 3 fold.

B2: sAnk1-MBP F71A (domain or fragment)
chain: B1 chain with F43A, A74I
For the molecule B2, in the assay with GST-Obsc_(6231–6260), the “fold decrease in kon against wild type” value was around 2 fold.

B3: sAnk1-MBP (wild type, sAnk1 residues 29–155) (domain or fragment)
chain: B1 chain with A74I
Molecule B3 came in with a Kd with GST-Obsc_(6316–6345) of around 130 nM.

B4: sAnk1-MBP I103A (domain or fragment)
chain: B1 chain with A74I, I75A
Take B4: the “fold decrease in kon against wild type” value in the assay with GST-Obsc_(6231–6260) was around 2 fold.
